{"source": "paper PMC3988799", "binders": {"B1": {"name": "Ste2-T326-GFP (receptor)", "chain": "MSDAAPSLSNLFYDPTYNPGQSTINYTSIYGNGSTITFDELQGLVNSTVTQAIMFGVRCGAAALTLIVMWMTSRSRKTPIFIINQVSLFLIILHSALYFKYLLSNYSSVTYALTGFPQFISRGDVHVYGATNIIQVLLVASIETSLVFQIKVIFTGDNFKRIGLMLTSISFTLGIATVTMYFVSAVKGMIVTYNDVSATQDKYFNASTILLASSINFMSFVLVVKLILAIRSRRFLGLKQFDSFHILLIMSCQSLLVPSIIFILAYSLKPNQGTDVLTTVATLLAVLSLPLSSMWATAANNASKTNTITSDFTTSTDRFYPGTLSS"}, "B2": {"name": "α-factor receptor (Ste2): T7-Ste2-N25Q,N32Q (protein)", "parent chain": "MSDAAPSLSNLFYDPTYNPGQSTINYTSIYGNGSTITFDELQGLVNSTVTQAIMFGVRCGAAALTLIVMWMTSRSRKTPIFIINQVSLFLIILHSALYFKYLLSNYSSVTYALTGFPQFISRGDVHVYGATNIIQVLLVASIETSLVFQIKVIFTGDNFKRIGLMLTSISFTLGIATVTMYFVSAVKGMIVTYNDVSATQDKYFNASTILLASSINFMSFVLVVKLILAIRSRRFLGLKQFDSFHILLIMSCQSLLVPSIIFILAYSLKPNQGTDVLTTVATLLAVLSLPLSSMWATAANNASKTNTITSDFTTSTDRFYPGTLSSFQTDSINNDAKSSLRSRLYDLYPRRKETTSDKHSERTFVSETADDIEKNQFYQLPTPTSSKNTRIGPFADASYKEGEVEPVDMYTPDTAADEEARKFWTEDNNNL"}}, "key": {"[1]": {"molecular_target": "T1, Ste2-F204S (S. cerevisiae) (UniProt D6VTK4)", "T1 sequence": "B2 parent chain with F204S"}, "[2]": {"assay": "limited trypsin digestion of plasma membranes ± α-factor, western blot", "details": "glycan lost; control: epitope-tagged receptors with intact sites"}}, "note": "Substitutions are numbered along the chain they refer to. Names and notes keep the numbering of the source."}
{"binder": "B1", "values": [{"measurement": "endocytosis complementation assay: percent of co-expressing cells with one or more GFP fluorescent foci after α-factor treatment (fluorescence microscopy)", "setting": "[1]", "value": "> 80", "unit": "%"}]}
{"binder": "B2", "values": [{"measurement": "structure_or_conformation", "setting": "[2]", "value": "no change"}]}
